Reference: article doi:10.1101/556266 (bioRxiv, 2019)

What was measured:
GST-SIPA1l2-86-99 = molecular target: T1, GST-SIPA1l2-86-99 (rat, UniProt Q5JCS6 86-99); assay: pull-down
T1 chain: PKKDCSKDLACKTL

GST-ActI-SIPA1L2-1-624 = molecular target: T2, GST-ActI-SIPA1L2-1-624 (rat, UniProt Q5JCS6 1-624); assay: pull-down
T2 sequence: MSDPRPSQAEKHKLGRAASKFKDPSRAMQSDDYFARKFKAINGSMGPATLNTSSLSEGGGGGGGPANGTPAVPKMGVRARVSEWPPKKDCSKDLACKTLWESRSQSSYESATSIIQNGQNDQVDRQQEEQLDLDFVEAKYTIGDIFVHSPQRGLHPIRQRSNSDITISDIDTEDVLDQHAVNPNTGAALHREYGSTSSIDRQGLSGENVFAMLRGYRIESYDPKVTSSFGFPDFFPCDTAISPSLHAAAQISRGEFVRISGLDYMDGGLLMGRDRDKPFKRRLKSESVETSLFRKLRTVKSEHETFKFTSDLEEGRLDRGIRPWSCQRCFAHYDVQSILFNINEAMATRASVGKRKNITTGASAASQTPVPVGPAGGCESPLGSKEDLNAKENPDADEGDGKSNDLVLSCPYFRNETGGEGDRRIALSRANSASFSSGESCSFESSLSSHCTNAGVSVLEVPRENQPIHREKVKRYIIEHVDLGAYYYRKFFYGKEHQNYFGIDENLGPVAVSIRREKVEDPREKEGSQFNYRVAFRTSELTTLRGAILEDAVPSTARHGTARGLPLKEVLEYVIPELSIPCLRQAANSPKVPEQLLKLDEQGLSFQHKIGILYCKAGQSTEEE

Row | Binder | binding result (GST-SIPA1l2-86-99) | binding result (GST-ActI-SIPA1L2-1-624)
1 | KLARHSKFGMKG [MBP-TrkB-454-465] | binds | 
2 | MBP-TrkB-454-821 (domain or fragment) not shown |  | binds
